Biological target: human MDM2 (human) (UniProt Q00987)
Experiment: cell-based or functional assay

Chain of human MDM2 (human) (Q00987 whole entry): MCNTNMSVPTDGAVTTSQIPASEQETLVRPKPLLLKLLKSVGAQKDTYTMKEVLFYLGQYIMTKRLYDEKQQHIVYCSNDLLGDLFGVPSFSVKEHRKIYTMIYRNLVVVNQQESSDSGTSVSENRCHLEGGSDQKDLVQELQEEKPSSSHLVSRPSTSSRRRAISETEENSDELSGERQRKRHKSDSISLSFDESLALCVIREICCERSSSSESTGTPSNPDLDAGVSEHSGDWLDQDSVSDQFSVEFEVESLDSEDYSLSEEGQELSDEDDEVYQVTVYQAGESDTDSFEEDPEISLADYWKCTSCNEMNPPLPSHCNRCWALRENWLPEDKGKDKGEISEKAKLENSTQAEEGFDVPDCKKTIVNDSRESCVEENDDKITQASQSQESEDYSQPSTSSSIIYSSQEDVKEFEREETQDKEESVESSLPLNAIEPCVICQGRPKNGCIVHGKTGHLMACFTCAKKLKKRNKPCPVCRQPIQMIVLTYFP

reduction of the p53 level expressed from a transfected construct in Saos-2 cells (Western blot, relative to alpha-tubulin) [%]	MDM2 half-life after cycloheximide (Western blot); approximately 15 min without TSG101 co-expression [min]	Substance
70	–	HA-tagged human TSG101
–	28	human TSG101 protein

Source: US20030138839A1
